Common to all, as to assay: ELISA on Sf9 extract, absorbance at 405 nm normalized to H16.D9
A general note: ELISA stands for enzyme-linked immunosorbent assay.

Assay [1] deals with HPV11 L1 virus-like particles (human papillomavirus type 11) (UniProt P04012).
The target in assay [2] is HPV16 L1 virus-like particles (human papillomavirus type 16) (UniProt P03101).
Assay [3] addresses HPV16:D202E virus-like particles (human papillomavirus type 16) (UniProt P03101).
The target in assay [4] is HPV16:D202H L1 (human papillomavirus type 16) (UniProt P03101).

On to MAb H16.U4 (antibody), for which the normalized ELISA value (normalized with H16.D9) was determined as 0.06 in assay [1], 0.79 in assay [2], 0.59 in assay [3] and 0.21 in assay [4].
The matching figures for MAb H16.V5 (antibody): 0.06, 1.08, 0.15 and 0.19.

These data come from US5952216.
